Consider two molecules from PMC2173740 (The Journal of Cell Biology, 2003).

Values joined by “and” are separate entries in the source; they are usually repeats but may differ in a detail not shown here. Equal values may be shown once.

Test [1] addresses 86-kD fragment of Toc159 (pea (endogenous in pea chloroplast outer envelope)). The test is described as follows: subunit quantification by Coomassie staining.
Test [2] has the same target. Briefly: subunit quantification by radioactive NEM labelling of cysteines.
Test [3] shares this target. Briefly: subunit quantification by immunoblot. (In general: A western blot detects proteins with antibodies after separation by electrophoresis.)
Test [4] has as its target T1, Toc75 (pea (endogenous in pea chloroplast …, UniProt Q43715 132-809)).
T1 sequence (looked up): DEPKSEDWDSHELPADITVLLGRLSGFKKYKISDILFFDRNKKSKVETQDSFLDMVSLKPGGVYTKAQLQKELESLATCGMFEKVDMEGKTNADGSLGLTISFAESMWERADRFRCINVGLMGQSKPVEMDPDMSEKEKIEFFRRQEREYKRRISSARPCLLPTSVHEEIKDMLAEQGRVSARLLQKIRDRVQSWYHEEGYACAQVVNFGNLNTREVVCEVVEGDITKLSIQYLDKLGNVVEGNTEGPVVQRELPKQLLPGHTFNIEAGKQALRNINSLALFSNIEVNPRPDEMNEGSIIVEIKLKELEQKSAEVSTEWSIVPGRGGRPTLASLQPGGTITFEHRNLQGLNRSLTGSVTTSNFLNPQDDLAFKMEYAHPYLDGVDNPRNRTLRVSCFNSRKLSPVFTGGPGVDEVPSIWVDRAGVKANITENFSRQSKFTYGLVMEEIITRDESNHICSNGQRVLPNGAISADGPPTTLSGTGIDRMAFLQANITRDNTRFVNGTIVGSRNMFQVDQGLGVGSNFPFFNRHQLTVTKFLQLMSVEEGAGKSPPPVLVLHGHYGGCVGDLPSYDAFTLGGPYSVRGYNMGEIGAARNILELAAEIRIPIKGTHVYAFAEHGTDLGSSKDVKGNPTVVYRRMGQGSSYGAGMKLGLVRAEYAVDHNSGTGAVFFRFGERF
The test is described as follows: co-sedimentation.

B1: Toc75 (natural protein)
chain: T1 sequence (looked up)
For the molecule B1, the stoichiometry N (molecules per Toc159) in test [1] was 4; in test [2], 4; in test [3], 4 to 5.

B2: Toc34 (natural protein, UniProt Q41009 1-310, looked up)
chain: MASQQQTVREWSGINTFAPATQTKLLELLGNLKQEDVNSLTILVMGKGGVGKSSTVNSIIGERVVSISPFQSEGPRPVMVSRSRAGFTLNIIDTPGLIEGGYINDMALNIIKSFLLDKTIDVLLYVDRLDAYRVDNLDKLVAKAITDSFGKGIWNKAIVALTHAQFSPPDGLPYDEFFSKRSEALLQVVRSGASLKKDAQASDIPVVLIENSGRCNKNDSDEKVLPNGIAWIPHLVQTITEVALNKSESIFVDKNLIDGPNPNQRGKLWIPLIFALQYLFLAKPIEALIRRDIATETKPAWETRDVGDRK
B2: the stoichiometry N (molecules per Toc159) in test [1] is 4 to 6; in test [2] it was 4 to 5; in test [3], 4 and 6. For the same molecule, the binding result in test [4] is on record as “binds”.
